Measurements from publication doi:10.1101/2024.03.23.586376 (bioRxiv, 2024).

B1: wild-type TFEB (transcription factor EB), C-terminal GFP-tagged construct (natural protein, UniProt P19484 1-476, looked up)
chain: MASRIGLRMQLMREQAQQEEQRERMQQQAVMHYMQQQQQQQQQQLGGPPTPAINTPVHFQSPPPVPGEVLKVQSYLENPTSYHLQQSQHQKVREYLSETYGNKFAAHISPAQGSPKPPPAASPGVRAGHVLSSSAGNSAPNSPMAMLHIGSNPERELDDVIDNIMRLDDVLGYINPEMQMPNTLPLSSSHLNVYSSDPQVTASLVGVTSSSCPADLTQKRELTDAESRALAKERQKKDNHNLIERRRRFNINDRIKELGMLIPKANDLDVRWNKGTILKASVDYIRRMQKDLQKSRELENHSRRLEMTNKQLWLRIQELEMQARVHGLPTTSPSGMNMAELAQQVVKQELPSEEGPGEALMLGAEVPDPEPLPALPPQAPLPLPTQPPSPFHHLDFSHSLSFGGREDEGPPGYPEPLAPGHGSPFPSLSKKDLDLMLLDDSLLPLASDPLLSTMSPEASKASSRRSSFSMEEGDVL
B2: Δ30-TFEB, mutant TFEB construct lacking the first 30 amino acids (RagC binding site), C-terminal GFP-tagged (domain or fragment, UniProt P19484 31-476, looked up)
chain: MHYMQQQQQQQQQQLGGPPTPAINTPVHFQSPPPVPGEVLKVQSYLENPTSYHLQQSQHQKVREYLSETYGNKFAAHISPAQGSPKPPPAASPGVRAGHVLSSSAGNSAPNSPMAMLHIGSNPERELDDVIDNIMRLDDVLGYINPEMQMPNTLPLSSSHLNVYSSDPQVTASLVGVTSSSCPADLTQKRELTDAESRALAKERQKKDNHNLIERRRRFNINDRIKELGMLIPKANDLDVRWNKGTILKASVDYIRRMQKDLQKSRELENHSRRLEMTNKQLWLRIQELEMQARVHGLPTTSPSGMNMAELAQQVVKQELPSEEGPGEALMLGAEVPDPEPLPALPPQAPLPLPTQPPSPFHHLDFSHSLSFGGREDEGPPGYPEPLAPGHGSPFPSLSKKDLDLMLLDDSLLPLASDPLLSTMSPEASKASSRRSSFSMEEGDVL

Target: RagC (human (endogenous in H1HeLa), UniProt Q9HB90 1-399)
Assay: co-IP

Chain of RagC (Q9HB90 whole entry): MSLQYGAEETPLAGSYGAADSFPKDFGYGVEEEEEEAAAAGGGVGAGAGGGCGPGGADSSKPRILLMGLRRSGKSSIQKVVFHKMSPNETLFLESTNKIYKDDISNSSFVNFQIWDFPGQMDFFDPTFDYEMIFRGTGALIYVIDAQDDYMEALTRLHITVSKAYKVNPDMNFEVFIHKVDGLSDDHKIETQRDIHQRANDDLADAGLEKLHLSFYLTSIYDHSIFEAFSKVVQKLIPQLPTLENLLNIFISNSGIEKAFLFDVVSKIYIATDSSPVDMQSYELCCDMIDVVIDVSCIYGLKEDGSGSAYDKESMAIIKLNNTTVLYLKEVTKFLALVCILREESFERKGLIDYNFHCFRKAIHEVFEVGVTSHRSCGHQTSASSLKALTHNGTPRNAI

Binder	TFEB/RagC ratio in the co-IP (densitometry), EV-D68-infected cells	TFEB/RagC ratio in the co-IP (densitometry), mock-infected cells
B1	0.4	1.04
B2	0.22	0.18
